Measurements: publication PMC11549086 (2024)

What was measured:
[1] = molecular target: T1, taxol-stabilized microtubules (tubulin) (Sus scrofa, UniProt P02550); assay: TIRF microscopy, Hill fit (150 mM salt)
T1 chain 1: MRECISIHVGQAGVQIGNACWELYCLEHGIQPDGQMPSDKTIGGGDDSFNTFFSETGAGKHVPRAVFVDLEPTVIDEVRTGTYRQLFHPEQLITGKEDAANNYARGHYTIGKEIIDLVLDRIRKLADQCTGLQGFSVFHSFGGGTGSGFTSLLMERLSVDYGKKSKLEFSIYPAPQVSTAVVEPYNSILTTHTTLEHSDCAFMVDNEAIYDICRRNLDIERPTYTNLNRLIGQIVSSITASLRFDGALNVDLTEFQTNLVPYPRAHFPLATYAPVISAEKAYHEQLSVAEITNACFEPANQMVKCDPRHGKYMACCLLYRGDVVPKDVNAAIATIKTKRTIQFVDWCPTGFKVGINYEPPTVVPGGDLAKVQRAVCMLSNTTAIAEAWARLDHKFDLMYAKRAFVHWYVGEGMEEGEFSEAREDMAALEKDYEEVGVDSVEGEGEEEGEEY
T1 chain 2: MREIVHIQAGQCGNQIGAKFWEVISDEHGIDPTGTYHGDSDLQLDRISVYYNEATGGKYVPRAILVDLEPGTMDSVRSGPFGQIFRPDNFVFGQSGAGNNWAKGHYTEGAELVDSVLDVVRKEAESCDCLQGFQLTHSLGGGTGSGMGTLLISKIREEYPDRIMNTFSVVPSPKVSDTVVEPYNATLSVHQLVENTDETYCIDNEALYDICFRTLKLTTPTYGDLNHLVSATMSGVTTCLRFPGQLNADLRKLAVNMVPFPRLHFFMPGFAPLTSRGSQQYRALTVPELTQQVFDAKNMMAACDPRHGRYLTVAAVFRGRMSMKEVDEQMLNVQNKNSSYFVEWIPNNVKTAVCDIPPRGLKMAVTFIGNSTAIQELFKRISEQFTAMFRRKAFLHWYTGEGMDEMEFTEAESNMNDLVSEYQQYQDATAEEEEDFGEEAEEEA

[2] = molecular target: T1, taxol-stabilized microtubules (tubulin); assay: TIRF microscopy, Hill fit (no added salt)

Kd [1]: ~300 nM
Kd [2]: ~29 nM
B1: HURP 1-285 (protein)
chain: MSSSHFASRHRKDISTEMIRTKIAHRKSLSQKENRHKEYERNRHFGLKDVNIPTLEGRILVELDETSQGLVPEKTNVKPRAMKTILGDQRKQMLQKYKEEKQLQKLKEQREKAKRGIFKVGRYRPDMPCFLLSNQNAVKAEPKKAIPSSVRITRSKAKDQMEQTKIDNESDVRAIRPGPRQTSEKKVSDKEKKVVQPVMPTSLRMTRSATQAAKQVPRTVSSTTARKPVTRAANENEPEGKVPSKGRPAKNVETKPDKGISCKVDSEENTLNSQTNATSGMNPDG
modifications: C-terminal eGFP fusion, taxol-stabilized microtubules
